The target of assay [1] is TtSlyDFL Y63F (Thermus thermophilus).
Assay [2] has as its target chimeric TtSlyD construct in which the IF domain is replaced by the flap loop from human FKBP12 (TtSlyDΔIF) (Thermus thermophilus | human) (UniProt P62942).
For assay [3] the target is unchanged. This is another data set of the same source.
In assay [4] the target is full-length SlyD from Thermus thermophilus (TtSlyDFL) (Thermus thermophilus).
Assay [5] has the same target. This is another data set of the same source.
Assay [6] concerns the target chimeric TtSlyD construct in which the IF domain is replaced by the flap loop from human FKBP12 (TtSlyDΔIF) (Thermus thermophilus | human) (UniProt P62942). This is another data set of the same source.
The target in assay [7] is full-length SlyD from Thermus thermophilus (TtSlyDFL) (Thermus thermophilus). This is another data set of the same source.
For assay [8], the target named is chimeric TtSlyD construct in which the IF domain is replaced by the flap loop from human FKBP12 (TtSlyDΔIF) (Thermus thermophilus | human) (UniProt P62942). The source holds these as a separate data set.
In assay [9] the target is full-length SlyD from Thermus thermophilus (TtSlyDFL) (Thermus thermophilus). The source holds these as a separate data set.
For assay [10], the target named is chimeric TtSlyD construct in which the IF domain is replaced by the flap loop from human FKBP12 (TtSlyDΔIF) (Thermus thermophilus | human) (UniProt P62942). This is another data set of the same source.

Results on seven substances are retold here after paper PMC5034536, “Molecular insights into substrate recognition and catalytic mechanism of the chaperone and FKBP peptidyl-prolyl isomerase SlyD” (BMC Biology, 2016).

Read-outs that look alike come from different tables or passages of the source.

Broadly, the Kd is a measure of binding affinity in units of concentration. A higher Kd goes with a looser complex. As usually defined, the stoichiometry N is the number of molecules, sites or subunits per partner or assembly. In assay [1], S2 peptide returned a KD1 (site 1, IF domain) of 0.03 µM; a KD2 (site 2, FKBP domain) of 1.58 µM; an N1 (site 1, IF domain) of 0.81; an N2 (site 2, FKBP domain) of 0.78. Further, in assay [1], the dH1 (site 1, IF domain) was -47.3 kJ/mol and the dH2 (site 2, FKBP domain) was -25.1 kJ/mol. Besides, in [2], the equilibrium dissociation constant (Kd) amounted to 14.4 µM, the dH is -41.8 kJ/mol and the stoichiometry N turned out to be 0.91. Besides, in assay [3], the equilibrium dissociation constant (Kd) amounted to 12.2 µM, the dH is -24.7 kJ/mol and the stoichiometry N amounted to 0.88. In assay [4], the KD1 (site 1, IF domain) was 0.15 µM; the KD2 (site 2, FKBP domain) turned out to be 3.16 µM; the N1 (site 1, IF domain) was determined as 0.98; the N2 (site 2, FKBP domain) stood at 1.05. In [4], this substance registered a dH1 (site 1, IF domain) of -61.9 kJ/mol and a dH2 (site 2, FKBP domain) of -37.2 kJ/mol.

In assay [2], “S2-P25A peptide (from UniProt P0A7V0 20-34)” displayed an equilibrium dissociation constant (Kd) of 12.1 µM, a dH of -49 kJ/mol and a stoichiometry N of 0.91. In assay [5], this substance came in with a KD1 (site 1, IF domain) of 0.129 µM; a KD2 (site 2, FKBP domain) of 7.04 µM; an N1 (site 1, IF domain) of 0.92; an N2 (site 2, FKBP domain) of 1.02. In addition, in assay [5], the dH1 (site 1, IF domain) is -69.5 kJ/mol and the dH2 (site 2, FKBP domain) is -35.6 kJ/mol. Moreover, in assay [6], the kcat/KM of peptidyl-prolyl cis/trans isomerization of the S2-P25A peptide, NMR lineshape analysis, 25 °C, 0.2 μM enzyme turned out to be 2.48e+08 M⁻¹ s⁻¹. In addition, in assay [7], the kcat/KM of peptidyl-prolyl cis/trans isomerization of the S2-P25A peptide, NMR lineshape analysis, 25 °C, 0.2 μM enzyme, peptide 10–1000 μM was found to be 3.68e+08 M⁻¹ s⁻¹. Besides, in assay [8], the kcat/KM of peptidyl-prolyl cis/trans isomerization of the S2-P25A peptide, NMR lineshape analysis, 25 °C, 0.2 μM enzyme came out at 2.84e+08 M⁻¹ s⁻¹. For the same substance, the KM of peptidyl-prolyl cis/trans isomerization of the S2-P25A peptide (cis form), Michaelis-Menten fit of NMR lineshape data, 25 °C in [9] amounted to 2000 µM.

In assay [10], “S2-P25A/P29E peptide (from UniProt P0A7V0 20-34)” registered a Kd of 29 µM, a dH of -26.4 kJ/mol and a stoichiometry N of 0.84. In assay [4], this substance gave a KD1 (site 1, IF domain) of 1.45 µM; a KD2 (site 2, FKBP domain) of 44 µM; an N1 (site 1, IF domain) of 1.13; an N2 (site 2, FKBP domain) of 1.09. In assay [4], this substance displayed a dH1 (site 1, IF domain) of -59 kJ/mol and a dH2 (site 2, FKBP domain) of -24.7 kJ/mol.

In assay [4], “S2-P25N/P29N peptide (from UniProt P0A7V0 20-34)” had a KD1 (site 1, IF domain) of 0.234 µM; a KD2 (site 2, FKBP domain) of 8.33 µM; an N1 (site 1, IF domain) of 0.93; an N2 (site 2, FKBP domain) of 1.18. In [4], the dH1 (site 1, IF domain) was -70.3 kJ/mol and the dH2 (site 2, FKBP domain) was -9.62 kJ/mol.

In assay [2], “S2-P29E peptide (from UniProt P0A7V0 20-34)” returned a Kd of 13.8 µM, a dH of -45.2 kJ/mol and a stoichiometry N of 0.69. Further, in [5], the KD1 (site 1, IF domain) stood at 0.513 µM; the KD2 (site 2, FKBP domain) is 5.68 µM; the N1 (site 1, IF domain) is 0.88; the N2 (site 2, FKBP domain) stood at 1.02. In addition, in assay [5], the dH1 (site 1, IF domain) is -66.1 kJ/mol and the dH2 (site 2, FKBP domain) is -11.3 kJ/mol.

With “S2-W23A peptide (from UniProt P0A7V0 20-34)”, in assay [2], the Kd turned out to be 17.1 µM, the dH was -33.9 kJ/mol and the stoichiometry N came out at 0.77. For the same substance, in [5], the KD1 (site 1, IF domain) was 0.855 µM; the KD2 (site 2, FKBP domain) is 18.8 µM; the N1 (site 1, IF domain) worked out at 0.76; the N2 (site 2, FKBP domain) was determined as 0.91. In [5], this substance returned a dH1 (site 1, IF domain) of -66.1 kJ/mol and a dH2 (site 2, FKBP domain) of -9.62 kJ/mol.

In [5], SlpA linker P5T peptide showed a Kd of 130 µM, a dH of -3.77 kJ/mol and a stoichiometry N of 1.76.
